Data on one molecule can be found in patent US11260100B2, “Compositions targeting the interaction domain between p27Kip1 and Brk and methods of use thereof to inhibit p27 Y phosphorylation and cdk4 activity” (The Research Foundation for the State University of New York, priority 2014, dated 2022).

The subject of test [1] is MCF7-ALT cells. Description: Long-term proliferation arrest at IC100 (FIG. 15A). The class given is cell-based, human. The note with it: IC100 Palbociclib, doxycycline induced ALT, replenished every two days. As for the experimental part:
FIGS. 15A-15C: ALT and PD treatment increases senescence, a clinical goal. FIG. 15A: MCF7-ALT cells were treated with IC100 concentration of Palbociclib (PD) or doxycycline to induce ALT. Drugs were replenished every two days and proliferation was determined by cell counting as indicated. Proliferation rates were standardized to the rate of proliferation seen in DMSO treated cells (control). PD treated cells were arrested for 10 days, before escape (proliferation) was detected. ALT expressing cells were arrested for 18 days before escape (proliferation) was detected. ALT expressing and PD treated cells were arrested for 30 days, with no escape detected. […] Proliferation was assessed by counting. […] Viability was measured by trypan blue staining and the ALT expressing, PD treated cells that weren't growing were viable. […]
MCF7-ALT cells were treated with a IC100 concentration of Palbociclib (PD) or doxycycline to induce ALT. Drugs were replenished every two days and proliferation was determined by cell counting as indicated. […] PD treated cells were arrested for 10 days, before escape (proliferation) was detected. ALT expressing cells were arrested for 18 days before escape (proliferation) was detected. ALT expressing and PD treated cells were arrested for 30 days, with no escape detected. […] Proliferation was assessed by counting. […]

Test [2] concerns MCF7 cells. The experiment in a line: Tetracycline inducible Alt Brk expression in MCF7 cells. The class given is cell-based, human. The note with it: +Tet. As for the experimental part: FIGS. 8A-8G: Alt Brk (SEQ ID NO: 17) acts as an endogenous inhibitor of Brk. (FIG. 8A) Flag tagged WT p27 was incubated with increasing amount of Flag tagged Alt-Brk (lanes 5-7) in presence of equal amount of Brk. Lane 5: +equimolar Brk and Alt, lane 6: ++2.5×Alt, lane 7: +++5×Alt Immunoblot analysis was performed using Flag, pY88 and pY74 antibodies. (FIG. 8B) Alt-Brk expressing cells were plated on day 0. They were induced (+Tet) or uninduced (−Tet) on day 1 and cells were harvested on days 2, 3 and 4 Immunoblot analysis was performed using N-terminal Brk, C-terminal Brk, Rb, Ser780 pRb, Flag or Actin antibodies. (FIG. 8C) p27 was immunoprecipitated from induced (+) or un-induced (−) Alt Brk expressing cells and immunoblot analysis was performed with p27, pY88 and pY74 antibodies. (FIG. 8D) Alt Brk or TRE3G vector alone cells were treated with + or −Tet and cell counts were used to monitor proliferation. […] (FIG. 8F) p27 was immunoprecipitated from MCF7 cells that were either contact arrested (G0), asynchronous (A), or serum starved with 1% and 0% serum for 48 h. Immunoblot analysis was performed to probe for p27, pY88 and pY74. IgG and Mv1Lu lysates served as a negative control. (FIG. 8G) Expression of WT or mutant p27s was induced by adding Tetracycline to the culture media. p27 was immunoprecipitated from cell lysates and probed for p27, pY88 and pY74 Immunoprecipitation with IgG served as a negative control.
NP-ALT was added to cell media in the absence of fetal bovine serum for 6 hours. This media was removed and replaced with FBS+media, and cells were allowed to recover for 2 days, at which time, cell counts were determined. Counts were standardized to the proliferation seen in the NO FBS untreated control. • Expression in vivo. Generation of the WT-Brk, KM-Brk, and YF-Brk has been described (32) Amphotropic retroviruses were generated by transfection using Lipofectamine 2000 (Life Technologies 11668-019) of HEK 293 cells with pAmpho envelope and pBabe or pTRE3G tetracycline inducible constructs. Following viral infection of MCF7 cells, stable integrants were isolated by puromycin selection. Colonies were pooled to generate stable, puromycin resistant clones. Stable expression was verified by immunoblot and immunofluorescence analysis. Tetracycline inducible expression was achieved by the addition of TetExpress (Clontech) to the media. • Mouse xenograft model. Female NOD/SCID 8 week old mice were injected with MCF7-ALT cells in the 4th mammary gland. Tumors were allowed to develop to a volume of 200 mm3, before treatment. Tumor volume was monitored every other day using digital calipers. Vehicle: daily gavage with PBS. […] Doxy+PD: Daily gavage of Palbociclib 100 mg/kg and 0.1 mg/ml doxycycline added to the drinking water. • Quantitative RT-PCR. […]

B1: Alt-Brk: alternative splice variant of Brk (SEQ ID NO: 17), 15 KD protein with SH3 domain, lacks kinase domain (protein, listed as Homo sapiens)
chain: MVSRDQAHLGPKYVGLWDFKSRTDEELSFRAGDVFHVARKEEQWWWATLLDEAGGAVAQGYVPHNYLAERETVESEPAGHAGCAALQDLAACRGPAAPERGGVLPQPARACELPQGPEPVPRPAAGRALPEARA
Turning to B1, in test [1], the “time arrested before escape (proliferation)” value is 18 days. In addition, in test [2], the “Rb phosphorylation on residue Ser780” value was “Rb phosphorylation was reduced”; the “cell cycle effect (cell counting, FACS)” value is listed as “arrested in G1 phase”; the “endogenous p27 Y74 phosphorylation” value is “unchanged”; the “endogenous p27 Y88 phosphorylation” value is recorded as “reduced”.
